Assay results published in patent WO2021160116A1.

Target: human FcRn mut (L320A, L321A) co-transfected with human β2M, stably overexpressed on HEK293 cells (human) (UniProt P55899)
Assay: flow cytometry competition, Argx-113 against biotin-hIgG (100 μg/mL) on HEK293 cells overexpressing human FcRn mut, pH 6.0

IC50: 9.77 nM
Substance: Argx-113
